In patent publication US20240101716A1 (LA NOVA MEDICINES DEVELOPMENT, published 2024):
Where a chain is given by its changes, count along the chain named.

B1: AS11948 sdAb (VHH)
VHH: EVQLVESGGGLVQAGDSLRLSCVASGRTFVTYGMGWFRQAPGKEREFVAAINWSGSMTSYGDSVKGRFAISRDNAKNTVYLQMNSLKPEDTAVYYCAAALGAVVYTTREPYTYWGRGTQVTVSS
notes: His6-tagged llama sdAb
B2: AS06686 sdAb (VHH)
VHH: AVQLVESGGGLVQAGDSLRLACAASGRTFLTYALGWFRQAPGKEREFVAGVSWSGSSTKYADSVKGRFTISRDNAKNTVYMQMNSLKPEDTAVYYCAAQISAIVPISAHEYQYWGQGTQVTVSS
notes: His6-tagged llama sdAb
B3: AS06750 sdAb (VHH)
VHH: AVQLVESGGGLVQAGDSLRLSCTASGRTFLTYAVGWFRQAPGTEREFVAGIRWSGGYTDYADSVKGRFTISRDNAKNTVYLQMNSLKPEDTAVYYCAAHRTIATIPEKYEYEYWGQGTQVTVSS
notes: His6-tagged llama sdAb
B4: AS12003 sdAb (VHH)
VHH: B3 VHH with A1E, T23A, T31S, Y57S, I105V, E107N, E112D, Y113T
notes: His6-tagged llama sdAb
B5: AS06775 sdAb (VHH)
VHH: B3 VHH with A1Q, T23A, Y32L, G56S, Y57G, R100T, Q116R
notes: His6-tagged llama sdAb
B6: AS06682 sdAb (VHH)
VHH: B3 VHH with T31S, G56E, Y57H, D62A, R100T, E107K
notes: His6-tagged llama sdAb
B7: AS06618 sdAb (VHH)
VHH: B3 VHH with A1E, G10R, Q13R, T23A, T31S, D62E, S63A
notes: His6-tagged llama sdAb
B8: AS06617 sdAb (VHH)
VHH: DVQLVESGGGLVQAGDSLRLSCAASGRTFISYAVGWFRQAPGSEREFVAGIRWNGIHTDYADSVKGRFTISRDNAKNTVTLEMTSLKPEDTAVYYCAAHRTIATIPEKYEYEYWGQGTQVTVSS
notes: His6-tagged llama sdAb
B9: AS11947 sdAb (VHH)
VHH: DVQLVESGGGLVQAGDSLRLTCSASGRTFISYAVGWFRQAPGTEREFVAGIRWNGISTDYTDSVKGRFTISRDNAKNTVYLQMNSLKPEDTAIYYCAAHRTIATIPNKYEYDHWGQGTQVTVSS
notes: His6-tagged llama sdAb
B10: PD-L1/SIRPa-LN1 (bispecific antibody, human IgG4 S228P, kappa)
heavy: not shown
light: EVQLVESGGGLVQPGGSLRLSCAASGRTFVTYGMGWFRQAPGKGREFVSAISWSGSMTSYGDSVKGRFTISRDNAKNTLYLQMNSLRPEDTAVYYCAAALGAVVYTTREPYTYWGQGTLVTVSSGGGGSGGGGSGGGGSEIVLTQSPGTLSLSPGERATLSCRASSSVSSSYLYWYQQKPGQAPRLLIYSTSNLASGIPDRFSGSGSGTDYTLTISRLEPEDAAVYFCHQWYSYPRTFGGGTKVEIKRTVAAPSVFIFPPSDEQLKSGTASVVCLLNNFYPREAKVQWKVDNALQSGNSQESVTEQDSKDSTYSLSSTLTLSKADYEKHKVYACEVTHQGLSSPVTKSFNRGEC
B11: PD-L1/SIRPa-LC1 (bispecific antibody, human IgG4 S228P, kappa)
heavy: not shown
light: EIVLTQSPGTLSLSPGERATLSCRASSSVSSSYLYWYQQKPGQAPRLLIYSTSNLASGIPDRFSGSGSGTDYTLTISRLEPEDAAVYFCHQWYSYPRTFGGGTKVEIKRTVAAPSVFIFPPSDEQLKSGTASVVCLLNNFYPREAKVQWKVDNALQSGNSQESVTEQDSKDSTYSLSSTLTLSKADYEKHKVYACEVTHQGLSSPVTKSFNRGECGGGGSGGGGSGGGGSEVQLVESGGGLVQPGGSLRLSCAASGRTFVTYGMGWFRQAPGKGREFVSAISWSGSMTSYGDSVKGRFTISRDNAKNTLYLQMNSLRPEDTAVYYCAAALGAVVYTTREPYTYWGQGTLVTVSS
B12: AS06628 sdAb (VHH)
VHH: QVQLVESGGGLVQAGGSLRLSCAASGRTFITYAIGWFRQAPGKEREFVTAINWSGSMTSYADSVKGRFTISRDNNKNMVYLQMNSLKPEDTAVYYCAAHRGAIAPMTQSVYDYWGQGTQVTVSS
notes: His6-tagged llama sdAb
B13: AS06703 sdAb (VHH)
VHH: B12 VHH with Q1E, Q13R, M78T, V93L, R100L, T107S
notes: His6-tagged llama sdAb
B14: AS06730 sdAb (VHH)
VHH: B12 VHH with T49S, N75A, M78T, S85G, M106I, T107A, D112T, Y113N
notes: His6-tagged llama sdAb
B15: AS06791 sdAb (VHH)
VHH: B12 VHH with N75A, M78T, M83I, S85G, P88S
notes: His6-tagged llama sdAb
B16: AS06778 sdAb (VHH)
VHH: QVQLVESGGGLVQAGGSLKLSCAASGRTFITYAMGWFRQAPGKERELVAAISWSGSSTYSADSVKGRFTISRDNAKNTVYLQMNSLKPEDTAVYYCAAEVSARTGEHLPKLMGDYWGQGTQVTVSS
notes: His6-tagged llama sdAb
B17: PD-L1/SIRPa-HC2 (bispecific antibody, human IgG4 S228P, kappa)
heavy: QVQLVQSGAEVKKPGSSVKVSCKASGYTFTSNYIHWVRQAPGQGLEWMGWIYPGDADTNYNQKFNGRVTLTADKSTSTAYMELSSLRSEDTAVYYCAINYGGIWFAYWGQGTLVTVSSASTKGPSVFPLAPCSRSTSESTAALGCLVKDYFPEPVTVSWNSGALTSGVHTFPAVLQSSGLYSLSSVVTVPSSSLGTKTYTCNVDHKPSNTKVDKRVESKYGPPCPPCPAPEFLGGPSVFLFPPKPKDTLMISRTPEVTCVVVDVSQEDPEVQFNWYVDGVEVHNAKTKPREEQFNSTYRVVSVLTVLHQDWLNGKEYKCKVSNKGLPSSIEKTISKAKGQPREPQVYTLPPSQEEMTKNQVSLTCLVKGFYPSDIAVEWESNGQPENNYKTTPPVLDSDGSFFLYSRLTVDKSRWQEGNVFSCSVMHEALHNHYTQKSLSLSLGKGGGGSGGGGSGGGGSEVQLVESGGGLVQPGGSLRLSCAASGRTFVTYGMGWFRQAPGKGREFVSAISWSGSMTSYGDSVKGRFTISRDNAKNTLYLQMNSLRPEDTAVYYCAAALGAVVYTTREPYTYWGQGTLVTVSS
light: DIQMTQSPSSLSASVGDRVTITCQASQDIGNKLIWYQQKPGKAPKLLIYYVTNLPGGVPSRFSGSGSGTDFTLTISSLQPEDFATYYCLQYKQNPLTFGQGTKLEIKRTVAAPSVFIFPPSDEQLKSGTASVVCLLNNFYPREAKVQWKVDNALQSGNSQESVTEQDSKDSTYSLSSTLTLSKADYEKHKVYACEVTHQGLSSPVTKSFNRGEC

Key:
[1] = biological target: human PD-L1 on CHO-K1 cells (human, UniProt Q9NZQ7 19-290); assay: cell-based or functional assay
[2] = biological target: T1, recombinant human PD-L1 His protein (human, UniProt Q9NZQ7 19-239); assay: SPR Biacore T200, PD-L1 His on chip, sdAb analyte
T1 construct: not shown: His tag
Description: Affinity constant (Kd) of each sdAb and HCAb was determined by surface plasmon resonance (SPR) on a BIAcore T200 instrument. Briefly, PD-L1 His was amine-coupled to a CMS sensor chip at a density of no higher than 100 RU. […] Flow rate was 30 μl/min in all experiments. Association and dissociation phases were 5 and 10 min, respectively. The chip was regenerated using Glycine/HCl pH 1.5. Binding curves at different concentrations of sdAbs and HCAbs were used to calculate the kinetic parameters kₒₙ, koff and KD.

[3] = biological target: PD-L1 (blocking assay of Example 11) (UniProt Q9NZQ7 19-239, limits assumed); assay: cell-based or functional assay
Chain of PD-L1 (blocking assay of Example 11) (Q9NZQ7 19-239 limits assumed): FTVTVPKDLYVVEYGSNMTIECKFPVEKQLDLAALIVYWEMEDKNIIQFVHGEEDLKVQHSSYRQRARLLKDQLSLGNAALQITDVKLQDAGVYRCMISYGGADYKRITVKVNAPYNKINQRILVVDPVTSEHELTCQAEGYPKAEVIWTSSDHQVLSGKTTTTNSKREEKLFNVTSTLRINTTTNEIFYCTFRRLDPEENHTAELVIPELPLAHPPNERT

T1 sequence (Q9NZQ7 19-239 limits assumed): as above
Chain of human PD-L1 on CHO-K1 cells (Q9NZQ7 19-290): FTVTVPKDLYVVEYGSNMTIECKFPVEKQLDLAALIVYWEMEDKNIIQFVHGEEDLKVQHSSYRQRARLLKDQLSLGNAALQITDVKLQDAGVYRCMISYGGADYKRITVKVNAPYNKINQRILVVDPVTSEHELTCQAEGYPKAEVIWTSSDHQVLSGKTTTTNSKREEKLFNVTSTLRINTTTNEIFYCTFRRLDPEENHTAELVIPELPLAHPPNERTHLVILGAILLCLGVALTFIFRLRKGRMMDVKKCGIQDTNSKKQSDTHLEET

Row | Binder | EC50 of PD-L1-based blockade assay (luciferase reporter) [1] [nM] | Kd [2] [nM] | koff [2] [s⁻¹] | kon [2] [M⁻¹ s⁻¹] | EC50, luminescence (RLU) in the PD-1/PD-L1 Blockade Assay [3] [nM]
1 | B1 | 25.2 | 0.167 | 0.000394 | 2.37e+06 | –
2 | B2 | 352 | 0.346 | 0.000965 | 2.79e+06 | –
3 | B3 | 33.6 | 0.109 | 0.000223 | 2.05e+06 | –
4 | B4 | 96.2 | 0.56 | 0.00155 | 2.76e+06 | –
5 | B5 | 75.5 | 0.156 | 0.000247 | 1.58e+06 | –
6 | B6 | 42 | 0.203 | 0.000342 | 1.68e+06 | –
7 | B7 | 44.5 | 0.17 | 0.000245 | 1.44e+06 | –
8 | B8 | 63.8 | 0.249 | 0.000464 | 1.86e+06 | –
9 | B9 | 77.2 | 0.617 | 0.00118 | 1.92e+06 | –
10 | B10 | – | – | – | – | 1.13
11 | B11 | – | – | – | – | 1.36
12 | B12 | 24.2 | 0.0526 | 0.000215 | 4.1e+06 | –
13 | B13 | 15 | 0.0387 | 6.96e-05 | 1.8e+06 | –
14 | B14 | 17.2 | 0.0195 | 0.000139 | 7.11e+06 | –
15 | B15 | 36.5 | 0.153 | 0.000239 | 1.56e+06 | –
16 | B16 | 20.1 | 0.0233 | 4.42e-05 | 1.9e+06 | –
17 | B17 | – | – | – | – | 1.28
